# From article PMC3953565 (Methods in molecular biology (Clifton, N.J.), 2009)
# Target: the molecule itself
# Assay: AUC
protein,measurement,value
"recombinant human mitochondrial single-stranded DNA binding protein, mature form (natural protein, UniProt Q04837 17-148, looked up) ESETTTSLVLERSLNRVHLLGRVGQDPVLRQVEGKNPVTIFSLATNEMWRSGDSEVYQLGDVSQKTTWHRISVFRPGLRDVAYQYVKKGSRIYLEGKIDYGEYMDKNNVRRQATTIIADNIIFLSDQTKEKE",stoichiometry N,4
